B1: 7-269 expressed as recombinant IgG (antibody, V domains shown)
VH: QMQLVESGGGVVQPGRSLRLSCAASRFDFNRFGMHWVRQAPGKGLEWVAYMSYDGGDRYYADSVKGRFTISRDNSKSTLHLQMDSLRPEDTAVYYCAKDDILGDCSTSHCYWGYYYQGMDVWGHGTTVTVSS
VL: EIVMTQSPDTLSVSPGERVTLSCRASQSVGSNLVWYQQKPGQSTRVLIYGASTRAATVPARFSGGGSGTEFTLTISSVQSEDFAVYYCYHYNNWPRGSFGQGTKLEIK
B2: 10-1074 IgG (antibody, V domains shown)
VH: QVQLQESGPGLVKPSETLSVTCSVSGDSMNNYYWTWIRQSPGKGLEWIGYISDRESATYNPSLNSRVVISRDTSKNQLSLKLNSVTPADTAVYYCATARRGQRIYGVVSFGEFFYYYSMDVWGKGTTVTVSS
VL: LSVALGETARISCGRQALGSRAVQWYQHRPGQAPILLIYNNQDRPSGIPERFSGTPDINFGTRATLTISGVEAGDEADYYCHMWDSRSGFSWSFGGATRLTVL
B3: BG18 IgG (antibody, V domains shown)
VH: QVQLRESGPGLVKPSETLSLSCTVSQDSRPSDHSWTWVRQSPGKALEWIGDIHYNGATTYNPSLRSRVRIELDQSIPRFSLKMTSMTAADTGMYYCARNAIRIYGVVALGEWFHYGMDVWGQGTAVTVSS
VL: SSELTQPPSVSVSPGQTARITCSGAPLTSRFTYWYRQKPGQAPVLIISRSSQRSSGWSGRFSASWSGTTVTLTIRGVQADDEADYYCQSSDTSDSYKMFGGGTKLTVL

Biological target: YU2 gp120 (HIV-1 clade B, isolate YU2, UniProt P35961)
Sequence (P35961 whole entry, looked up): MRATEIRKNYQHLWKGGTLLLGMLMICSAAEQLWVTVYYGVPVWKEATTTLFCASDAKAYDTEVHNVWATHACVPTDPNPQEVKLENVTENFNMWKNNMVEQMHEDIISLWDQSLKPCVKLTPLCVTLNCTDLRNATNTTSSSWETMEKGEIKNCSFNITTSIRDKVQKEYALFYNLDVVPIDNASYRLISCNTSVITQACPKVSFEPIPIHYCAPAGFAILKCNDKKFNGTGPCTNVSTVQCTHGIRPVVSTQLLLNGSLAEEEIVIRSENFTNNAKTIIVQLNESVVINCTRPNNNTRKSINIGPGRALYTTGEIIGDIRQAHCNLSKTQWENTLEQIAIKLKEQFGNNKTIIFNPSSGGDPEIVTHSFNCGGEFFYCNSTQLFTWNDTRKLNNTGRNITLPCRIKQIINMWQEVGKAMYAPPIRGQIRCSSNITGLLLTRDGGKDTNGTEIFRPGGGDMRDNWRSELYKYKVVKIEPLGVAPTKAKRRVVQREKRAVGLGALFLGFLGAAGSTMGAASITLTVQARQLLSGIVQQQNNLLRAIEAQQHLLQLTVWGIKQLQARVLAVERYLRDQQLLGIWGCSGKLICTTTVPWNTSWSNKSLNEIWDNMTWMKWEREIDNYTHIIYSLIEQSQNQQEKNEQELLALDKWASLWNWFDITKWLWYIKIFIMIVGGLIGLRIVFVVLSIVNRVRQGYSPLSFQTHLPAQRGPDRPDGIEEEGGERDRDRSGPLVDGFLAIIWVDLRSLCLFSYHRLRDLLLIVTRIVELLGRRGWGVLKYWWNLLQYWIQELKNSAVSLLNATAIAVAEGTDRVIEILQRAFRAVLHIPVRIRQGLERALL
Assay: ELISA

Row | Binder | binding result
1 | B1 | binds
2 | B2 | binds
3 | B3 | binds

— paper PMC8932546 (The Journal of Experimental Medicine, 2022)
